Target: Rap1 preloaded with mGppNHp (GDI assay) (Dictyostelium) (UniProt P18613)
Assay: GDI (guanine nucleotide dissociation inhibition) assay, fluorescence; mGppNHp labelled G-protein with indicated amounts of RA-TalB, 200 fold excess of GppNHp, 25 °C; 50 mM Tris-HCl pH 7.5, 5 mM MgCl2, 50 mM NaCl, 5 mM DTE; Kd from dependence of kobs on RA-TalB concentration

UniProt P18613, sequence (P18613 whole entry): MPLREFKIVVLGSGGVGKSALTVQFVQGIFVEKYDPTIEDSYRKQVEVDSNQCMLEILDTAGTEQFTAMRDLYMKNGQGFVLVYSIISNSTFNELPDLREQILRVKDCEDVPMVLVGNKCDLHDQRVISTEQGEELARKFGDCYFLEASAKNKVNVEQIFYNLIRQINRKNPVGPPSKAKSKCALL

B1: Dictyostelium RA-TalB domain (residues 1-122) (domain or fragment)
chain: MSLTLKIQIVRDKQVKAMKFSPTQTVAEVCAQVREKINETSGDDHGLFQPGIDAKRPSRWLKMDKTLQFYDLKINDELDYKKKHRPLKVRLMDETVKTMLVDDSLTAGEILEIIGKRIGIKN
Kd: 19.9 µM

Source: paper PMC4861126
